The experiment addresses CTLA4-FRB*-HA (UniProt P16410).

1 substance from article PMC12827578 can be followed below.

Where only a bound is given, the exact number is not on record here.

“FLAG-FKBP-USP15 WT (from UniProt P62942 2-108) (enzyme)” had a CTLA4-FH protein level by Western blot after Dox induction of FF-USP15 WT (18 h) and A/C 500 nM (24 h) of over 2 fold.
